Measured values published in US20250042994A1 (HAINAN SIMCERE ZAIMING PHARMACEUTICAL, published 2025).

B1: F5.7.1 (antibody, human IgG1, V domains shown)
VH: QVTLKESGPGILQPSQTLSLTCSFSGFSLTTFGMGVGWIRQPSGKGLEWLTHIWWDDDKYYNPALKSRLTISKDTSKNQVFLRIANVDTADTATYYCARVITTGVPYFDYWGQGTTLTVSS
VL: ENVLTQSPAIMSASPGEKVTMTCRASSSVSSSYLYWYQQKSGASPKLWISSTSNLASGVPARFSGSGSGTSYSLTINSVEAEDAATYYCQQYSGYPWTFGGGTKLEIK
notes: human-murine chimeric antibody, human IgG1
B2: F5.8.6 (antibody, human IgG1, V domains shown)
VH: QVQLHQPGAELVMPGASVTLSCKASGYTFTSYWMHWVKQRPGQGLEWIGEIDPSDSYTTYDQKFKGKATLTVDKFSSTAYMQFSSLTSEDSAVYYCARLTGNHLDYWGQGTTLTVSS
VL: DIVMTQSHKFMSSSVGDRVSITCKASQDVSPAVAWYQQKPGQSPKLLIYSTSYRNTGVPDRFTGSGSGTDFTFTISSVQAEDLAVYYCQQHYSIPLTFGAGTKLELK
notes: as for B1
B3: F5.10.6 (antibody, human IgG1, V domains shown)
VH: DVQLQESGPGLVKPSQSLSLTCSVTDYSITSGYYWTWIRQFPGNKLEWMGYISYDGSTNYNPSLKNRFSITRDTSKNQFFLKLNSVIIEDTATYYCARDRMSTTWYFDVWGTGTTVTVSS
VL: DIVLTQSPASLAVSLGQRATISCRASESVDNYGISFMHWYQQKPGQPPKLLIYRASKTESGIPARFSGSGSRTDFTLTINPVETDDVATYYCQQSNKYPRTFGGGTKVEIK
notes: as for B1
B4: F4.272.13 (antibody, human IgG1, V domains shown)
VH: QVQLKESGPGLVAPSQSLSITCTVSGFSLTDYGVSWIRQPPGKGLEWLGVIWGSETTFYNSALKSRLSISKDNSKSQLFLQMNSLQADDTAIYYCAKHHYYGGSFSMDYWGQGTSVTVSS
VL: DIQMTQTTSSLSASLGDRVTISCRASQDINNYLNWYQQKPDGTVKFLIYYTSRLHSGVPSRFSGSGSGTDYSLTISDLEQEDIATYFCQQGNTLPYTFGGGTKLEIK
notes: as for B1
B5: F1-mab003 (antibody, human IgG1, V domains shown)
VH: EVQLQQSGPELVKPGASVKMSCKASGYTFTDYVMHWVRQTPGQGLEWIGYFNPYNDGTNYNEKFKVKATLTSDKSSTTAYMELSSLTSEDSAVYYCARGVYYYGRDFDYWGQGTTLTVSS
VL: DVVLTQTPLSLPVSLGDQASISCRSSQSLENSNGNSYLNWYLQKPGQSPQLLIYRVSNRFSGVLDRFSGSGSGTDFTLKISRVEAEDLGVYFCLQITHVPWTFGGGTKLEIK
notes: as for B1

How the values were obtained:
[1] = molecular target: T1, Human CD19-his protein (human, UniProt P15391 20-291); assay: ELISA, antibody at 10 nM
T1 construct: bought protein; also called human CD19 protein; recombinant human CD19-His; not shown: His tag
T1 sequence (looked up): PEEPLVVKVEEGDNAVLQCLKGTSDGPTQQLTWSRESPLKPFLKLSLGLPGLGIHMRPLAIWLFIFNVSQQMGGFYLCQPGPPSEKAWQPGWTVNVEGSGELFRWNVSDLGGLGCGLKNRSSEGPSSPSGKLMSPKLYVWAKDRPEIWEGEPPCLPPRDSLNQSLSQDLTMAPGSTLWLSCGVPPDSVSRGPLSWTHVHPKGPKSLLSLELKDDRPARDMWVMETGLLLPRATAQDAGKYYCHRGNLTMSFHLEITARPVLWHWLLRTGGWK

[2] = molecular target: T1, Human CD19-his protein; assay: ELISA, antibody at 0.001 nM
[3] = molecular target: T1, Human CD19-his protein; assay: ELISA on coated human CD19-His
Procedure: Human CD19-his protein (purchased from ACROBiosystems, catalog number: CD9-H52H2) was diluted with PBS to a final concentration of 4 μg/mL, and then added to a 96-well ELISA plate at 100 μl/well. The plate was sealed with a plastic film and incubated overnight at 4° C., the plate was washed 2 times with PBS the next day, and then a blocking solution [PBS+2% (w/w) BSA] was added for blocking at room temperature for 2 h. The blocking solution was poured off, and 100 nM gradiently diluted CD19 chimeric antibody or control antibody was added at 50 μl/well. After incubation at 37° C. for 2 h, the plate was washed 3 times with PBS. […] TMB substrate was added at 50 μl/well, and incubated at room temperature for 10 min, and then a stop solution (1.0 N HCl) was added at 50 μl/well. The OD450 nm values were read by an ELISA microplate reader (Multimode Plate Reader, EnSight, purchased from Perkin Elmer).

[4] = molecular target: T1, Human CD19-his protein; assay: ELISA, antibody at 0.10 nM
[5] = molecular target: T1, Human CD19-his protein; assay: ELISA, antibody at 0.01 nM
[6] = molecular target: T1, Human CD19-his protein; assay: ELISA, antibody at 1.00 nM
[7] = molecular target: T1, Human CD19-his protein; assay: ELISA, antibody at 100 nM
[8] = molecular target: T1, Human CD19-his protein; assay: ELISA, antibody at 0.0001 nM
[9] = molecular target: T2, human CD19 exon1-3-his protein (human, UniProt P15391 20-186, limits assumed); assay: ELISA, coated at 2 ug/mL
T2 construct: made in HEK293E cells; also called membrane-distal end; not shown: His tag
T2 sequence (looked up): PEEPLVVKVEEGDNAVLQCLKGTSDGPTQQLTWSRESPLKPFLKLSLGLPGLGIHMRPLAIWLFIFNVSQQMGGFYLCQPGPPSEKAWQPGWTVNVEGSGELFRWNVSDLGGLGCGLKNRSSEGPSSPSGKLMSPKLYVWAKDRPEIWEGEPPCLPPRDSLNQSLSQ

[10] = molecular target: T3, murine CD19 protein (murine, UniProt P25918 17-287, limits assumed); assay: ELISA, coated murine CD19
T3 construct: bought protein; also called commercial murine CD19
T3 sequence (looked up): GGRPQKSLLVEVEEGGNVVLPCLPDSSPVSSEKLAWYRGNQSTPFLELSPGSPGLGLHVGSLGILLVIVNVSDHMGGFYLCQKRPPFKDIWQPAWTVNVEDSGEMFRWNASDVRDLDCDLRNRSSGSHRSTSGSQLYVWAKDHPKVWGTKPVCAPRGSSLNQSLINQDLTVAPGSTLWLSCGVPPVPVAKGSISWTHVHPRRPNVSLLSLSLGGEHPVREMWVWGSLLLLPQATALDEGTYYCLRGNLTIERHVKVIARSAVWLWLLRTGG
Procedure, shortened: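 Plates coated overnight at 4° C with recombinant murine or monkey CD19 and blocked with 2% BSA. Chimeric antibodies, serially diluted from 100 nM, bound for 2 h at 37° C. TMB development for 10 min with OD450 read-out.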

Binder | OD450 [1] | OD450 [2] | EC50 (read off the curve) [3] [nM] | OD450 [4] | OD450 [5] | OD450 [6] | OD450 [7] | OD450 [8] | binding result [9] | binding result [10]
B1 | 1.78 | 0.08 | ~0.07 | 1.09 | 0.25 | 1.62 | 1.91 | 0.06 | no binding | no binding
B2 | 0.93 | 0.06 | ~0.4 | 0.22 | 0.08 | 0.69 | 0.96 | 0.05 | no binding | no binding
B3 | 1.76 | 0.07 | ~0.2 | 0.68 | 0.15 | 1.48 | 1.52 | 0.05 | no binding | no binding
B4 | 2.14 | 0.09 | ~0.04 | 1.56 | 0.33 | 2.14 | 2.25 | 0.06 | no binding | no binding
B5 | 1.72 | 0.08 | ~0.07 | 1.09 | 0.28 | 1.58 | 1.98 | 0.06 | no binding | no binding
